This note sets out measurements from article PMC2998434, “Domain Swapping in Allosteric Modulation of DNA Specificity” (PLoS Biology, 2010).

Data set [1] concerns the target T1, SgrAI wild type (UniProt Q9F6L0 1-339).
T1 sequence: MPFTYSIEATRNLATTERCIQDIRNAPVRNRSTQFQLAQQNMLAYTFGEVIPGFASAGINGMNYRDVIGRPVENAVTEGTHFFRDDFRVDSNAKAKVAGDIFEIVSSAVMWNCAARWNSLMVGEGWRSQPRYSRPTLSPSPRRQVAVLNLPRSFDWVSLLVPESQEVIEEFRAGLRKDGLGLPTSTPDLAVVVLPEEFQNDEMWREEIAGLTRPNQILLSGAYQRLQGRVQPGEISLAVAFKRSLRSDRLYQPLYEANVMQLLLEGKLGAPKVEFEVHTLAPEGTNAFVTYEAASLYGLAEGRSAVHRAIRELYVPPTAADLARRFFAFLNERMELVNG
Put plainly: X-ray crystal structure, 2.03 A; 50 mM CaCl2; two Ca2+ per active site; domain-swapped tetramer with two duplexes; FPA: 20 mM Tris-OAc pH 8.0, 50 mM KOAc, 10 mM Ca(OAc)2, 1 mM DTT, 10% glycerol, 4 C, 1 nM DNA; native PAGE: same binding buffer, 1 uM SgrAI, 30 min at 4 C, gel. The conditions noted are these: protein: recombinant; chain copies: 2; 5' overhang 1 nt (A) at each end; self-complementary, 2 strand copies.

Data set [2] addresses T2, SgrAI P27W (UniProt Q9F6L0 1-339, P27W).
T2 sequence: T1 sequence with P27W
In words: fluorescence polarization anisotropy; 10 mM Ca2+; FPA: 20 mM Tris-OAc pH 8.0, 50 mM KOAc, 10 mM Ca(OAc)2, 1 mM DTT, 10% glycerol, 4 C, 1 nM DNA; native PAGE: same binding buffer, 1 uM SgrAI, 30 min at 4 C, gel. The conditions noted are these: protein: recombinant, chain copies: 2. For orientation: Polarisation of emitted light reports the rotation of a fluorescent probe.

Data set [3] has as its target T3, SgrAI P27G (UniProt Q9F6L0 1-339, P27G).
T3 sequence: T1 sequence with P27G
The description is as above. As to conditions: protein: recombinant, chain copies: 2.

Data set [4] concerns the molecule itself. Put plainly: crystal structure; SgrAI with self-complementary 17-mer cognate DNA (1:2 SgrAI dimer:DNA duplex) and Ca2+; 14% PEG 4K, 0.1 M imidazole pH 6.5, 0.15 M NaCl, 0.05 M CaCl2, 17°C; two DNA bound dimers form a domain swapped tetramer (N counts subunits).
The mark [5] stands for this setting: label: 5' FLO on top strand only.
Where [6] appears, read: label: 5' HEX on both strands (FPA), 5' 32P (native gel), blunt, self-complementary, 2 strand copies.

Changes are numbered by the printed parent chain.

B1: 17-2 cognate (crystal DNA) (dsDNA)
DNA 1: AAGTCCACCGGTGGACT
DNA 2: AAGTCCACCGGTGGACT
As for B1, the binding result in data set [1] was “binds”.

B2: PCP (precleaved primary site DNA) (dsDNA)
DNA 1: GATGCGTGGGTCTTCACA
DNA 2: CCGGTGTGAAGACCCACGCATC
modifications: 5' phosphate at the cleavage site
Regarding B2, the values for the Kd in data set [2] (setting [5]) and in data set [3] (setting [5]) were 9 ± 2 nM and 5 ± 2 nM, respectively.

B3: SgrAI restriction endonuclease, wild type (enzyme, Streptomyces griseus)
chain: PFTYSIEATRNLATTERCIQDIRNAPVRNRSTQFQLAQQNMLAYTFGEVIPGFASAGINGMNYRDVIGRPVENAVTEGTHFFRDDFRVDSNAKAKVAGDIFEIVSSAVMWNCAARWNSLMVGEGWRSQPRYSRPTLSPSPRRQVAVLNLPRSFDWVSLLVPESQEVIEEFRAGLRKDGLGLPTSTPDLAVVVLPEEFQNDEMWREEIAGLTRPNQILLSGAYQRLQGRVQPGEISLAVAFKRSLRSDRLYQPLYEANVMQLLLEGKLGAPKVEFEVHTLAPEGTNAFVTYEAASLYGLAEGRSAVHRAIRELYVPPTAADLARRFFAFLNERMELVNG
notes: the structure legends name residues 1-24 (swapping domain), 25-30 (hinge loop) and 31-339; residues 1-339 are named for the structure; also called WT SgrAI; wild type SgrAI dimer
With B3, the stoichiometry N (in general, the number of molecules, sites or subunits per partner or assembly) in data set [4] turned out to be 4.

B4: 18-1 (primary site) (dsDNA)
DNA 1: AAGTCCACCGGTGGACTT
DNA 2: AAGTCCACCGGTGGACTT
Turning to B4, the equilibrium dissociation constant (Kd) (commonly the equilibrium constant for the complex coming apart) in data set [2] (setting [6]) stood at 4 ± 0.8 nM; in data set [3] (setting [6]), 17 ± 5 nM.
